Assay results from patent US20260069689A1 (Regeneron, published 2026).
Positions count from the first letter of the chain named.

B1: mAb14285 (antibody, V domains shown)
VH: QVQLVQSGAEVKKPGASVKVSCKASGYTFTGYFIHWVRQAPGQGLEWMGWISPISGGTNYAQKFQGRVTVTRDTSITTAYMELSRLTSDDTAVYHCAREGGTWKGDFDYWGQGTLVTVSS
VL: QSALTQPASVSGSPGQSITISCTGTSSDVESYNLVSWYQQHPGKAPKLMIYEGSKRPSGVSNRFSGSKSGNTASLTISGLQAEDEADYYCSSYAGSSTWVFGGGTKLTVLG
B2: mAb14280 (antibody, V domains shown)
VH: QVQLVQSGAEVKKPGASVRVSCKASGYTFTGNYIHWVRQAPGQGLEWMAWINPNSGGKNYAQKFQGRVTLTRDTSVNTAYMELSRLRSDDTAMYYCARDVNYNILTGPGGLWGQGTLVTVSS
VL: QSALTQPPSASGSPGQSVTISCTGTSSDVGGYNFVSWYQQHPGKAPKLMIYEVSKRPSGVPDRFSGSKSGNTASLTVSGLQAEDEADYYCSSYAGSNNFVFGTGTKVTVLG
B3: mAb14234 (antibody, V domains shown)
VH: QVQLVESGGGVVQPGRSLRLSCAASGFTFSSYGIHWVRQAPGKGLEWVAIIWYDGSEKYYADSVKGRFTISRDNSKNTLFLQMNSLEAEDTAVYYCARGPDLLTGYYNYFYYGMDVWGQGTTVTVSS
VL: QSVLTQPPSVSGAPGQRVTISCTGSSSNIGIGYDVHWYQQLPGTVPKLLIYGNTNRPSGVPDRFSGSKSGTSASLAITGLQAEDEADYYCQSYDSSLSSYVFGTGTKVTVLG
B4: mAb14232 (antibody, V domains shown)
VH: QITLKESGPTLVKPTQTLTLTCTFSGFSLSASGVGVGWIRQPPGKALEWLALIYWDDDKRYSPSLKSRLTITKDTSKNQVVLTMTNMDPVDTATYYCAQHKVATIFDYWGQGTLVTVSS
VL: QSALTQPPSASGSPGQSVTISCTATSSDVGNYNYVSWYQQHPGKAPKLMIYEVTKRPSGVPDRFSGSKSGNTASLTVSGLQAEDEADYYCSSYAGSWGVFGGGTKLTVLG
B5: mAb14292 (antibody, V domains shown)
VH: EVQLVESGGGLVQPGGSLRLSCVASGFAFSTYEMNWVRQAPGKGLEWVSYISSSGSTIYYADSVKGRLTISRDNVKNSLYLQMNSLRVEDTAIYYCARDAIRNNDILTDPATFDPWGQGTLVTVSS
VL: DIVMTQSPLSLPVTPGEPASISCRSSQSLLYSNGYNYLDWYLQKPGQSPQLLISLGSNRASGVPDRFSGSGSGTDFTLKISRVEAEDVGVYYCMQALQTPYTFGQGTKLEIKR
B6: mAb15156 (antibody, V domains shown)
VH: QLQLQESGPGLVKSSETLSLTCTVSASITGSTYYWGWIRQPPGKGLEWIGSIYYSGTTYYKASLKSRVTISVDTSKNQFSLKLTSVTVADTAVYYCVSHLLGNYHKYGMDVWGQGTTVTVSS
VL: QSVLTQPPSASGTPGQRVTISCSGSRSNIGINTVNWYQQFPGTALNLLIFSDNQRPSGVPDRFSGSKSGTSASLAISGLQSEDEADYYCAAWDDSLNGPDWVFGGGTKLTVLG
B7: mAb15157 (antibody, V domains shown)
VH: EVQLVESGGALVQPGGSLRLSCAASGFPFTIYAMTWVRQAPGKGLEWVSVITGSGDSTYYADSVKGRFTISRDNSKNTLYLQMNSLRAEDTAVYYCVKTGEGFFYYYYGMDVWGQGTTVTVSS
VL: QSVLTQPPSVSAAPGQKVTISCSGSSSNIGNSYISWYQQLPGTAPKLLIYVNNKRPSGIPDRFSGSKSGTSATLGITGLQTGDEADYYCGTWDSSLSAGVFGSGTKVTVLG
B8: mAb15158 (antibody, V domains shown)
VH: EVQLVESGGGLVQPGGSLRLSCAASGFSFSSNWMSWVRQAPGKGLEWVGNINQDGSEKYYVDSVEGRFTISRDNAKKSLYLQMNSLRAEDTAVYYCARDLGVLWFGDFVDWGQGALVTVSS
VL: DIQMTQSPSSLSASVGDRVTITCRASQAISNSLAWYQQKPGKAPKLLLYAASTLESGVPSRFSGSGSGTDYTLTISSLQPEDFATYYCLQYYGSPRTFGQGTKVEIKR
B9: mAb15159 (antibody, V domains shown)
VH: EVQLVESGGGLVQPGGSLRLSCAASGITVSSNYMTWVRQAPGKGLEWVSLIYSGGSTFYADSVRGRFTISRDNSKNTLYLQMNSLRAEDTAVYYCARDLVVYGMDVWGQGTTVTVSS
VL: DIQLTQSPSSLSASVGDRVTITCRASQGISSYLAWYQQKPGKAPKLLIYAASTLQSGVPSRFSGSGSGTDFTLTISSLQPEDFATYYCQHLNSDPHTFGQGTKLEIKR
B10: mAb15160 (antibody, V domains shown)
VH: EVQLVESGGGLVQPGGSLRLSCSASGFTFSRYAMYWVRQAPGKGLEYVSAISSDGGSTYDADSVKGRFTISRANSKNTLYLQMSSLRAEDTAVYYCVKGLRELLYYYYGMDVWGQGTTVTVSS
VL: DIQMTQSPSSLSASVGDRVTITCRAGQSISSFLNWYQQKPGKAPKLLIYAASSLQSGVPSRFSGSGSGTDFTLTISSLQPEDFATYYCQQSYITPFTFGPGTKVDIKR
B11: mAb15161 (antibody, V domains shown)
VH: EVQLVESGGGLVQPGGSLRLSCAASGFTFSSYEMNWVRQAPGKGLEWVSYISSSGSILYYADSVKGRFTASRDNAKNSLYLQMNSLRAEDTGVYYCARREYQLLRPFEFWGQGTLVTVSS
VL: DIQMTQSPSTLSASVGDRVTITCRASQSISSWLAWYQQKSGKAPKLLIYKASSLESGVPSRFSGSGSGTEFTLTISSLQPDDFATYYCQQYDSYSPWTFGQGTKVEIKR
B12: mAb15162 (antibody, V domains shown)
VH: EVQLVETGGGLIQPGGSLRLSCAASEFIVSRNYMSWVRQAPGKGLEWVSLIYSGGSTYYADSVKGRFTISRDNSKNILYLQMNSLRAEDTAVYYCARDRGGISDYWGQGTLVTVSS
VL: DIQMTQSPSSLSASVGDRVTITCQASQDINKYLNWFQQKPGKAPKLLIYDASNLETGVPSRFSGSGSGTDFTFTISSLQPEDIATYYCQQYDNLPRTFGQGTKLEIKR
B13: mAb15163 (antibody, V domains shown)
VH: EVQLVETGGGLIQPGESLRLSCAASGFIVSTNYMNWVRQAPGKGLEWVSVIYRGGSTYYADSVKGRFTISRDNSKNTLFLQMNSLRAEDTAVYYCARGHEDFDYDTPASGAFDIWGQGTMVTVSS
VL: B2 VL with Y32H, F34Y, L48V, N98K
B14: mAb15164 (antibody, V domains shown)
VH: EVQLVESGGGLVQPGGSLRLSCAASGFAVSSNYMTWVRQAPGKGLEWVATIYSGDSTYYADSVKGRFTISRHNSKNTLSLQMNSLRADDTAIYYCARLSGVLSGTYNGAFDIWGQGTMVTVSS
VL: B1 VL with V29F, E30G, S31N, L34I, K44Q, L48V, S54N, N71H
B15: mAb15165 (antibody, V domains shown)
VH: EVQLVESGGGLVQPGGSLRLSCAASGFTVSSNYMSWVRQAPGKGLEWVSAIYSGDSTYYADSVKGRFTISKDNSKNTLYLQMNSLRGEDTAVYYCARLGGALQAYDGAFDYWGQGTLATVSS
VL: B1 VL with V29F, E30G, S54N, N62I
B16: mAb15166 (antibody, V domains shown)
VH: EVQLVESGGGLVQPGGSLRLSCAASGFTVTSNYMSWVRQAPGKGLEWVSAIYSGESTYYADSVKGRFTISRDSSKNTLYLQMNSLRVEDTAVYYCASIHDYSNYVGGFDPWGQGTLVTVSS
VL: B1 VL with T25P, V29F, E30G, S54T
B17: mAb15170 (antibody, V domains shown)
VH: B9 VH with S25T, T35S, R64K, D72H, N83S, V101D, Y102F
VL: B9 VL with S31N, A84G, H90Q, P95S, H96P, L104V
B18: mAb15150 (antibody, V domains shown)
VH: EVQLVETGGGLIQPGGSLRLSCAAPGFIVSSNYMSWVRQAPGKGLEWVSLLYPGGSTYYADSVKGRFTISRDNSKNTLYLQMNSLRADDTAVYYCARVLPIVEDHFDYWGQGTLVTVSS
VL: DIQLTQSPSFLSASVGDRVTITCRASQGMSSYLAWYQKKPGKAPKLLIYGATILQSGVPSRFSGSGSGTEFTLTISSLQPEDFATYYCQQLNSDPLYMYTFGQGTKLEIKR
B19: mAb15151 (antibody, V domains shown)
VH: QVQLVESGGGVVQPGRSLRLSCAASGFVFNSYGMHWVRQAPGKGLEWVAVLWYEGSKNYYADSVKGRFTISRDNSKNTLYLQMNSLRAEDTAVYYCARHGSGSFFGYYLDYWGQGTLVTVSS
VL: DIQMTQSPSSLSASVGDRVTITCRASHNINDFLNWYQQKPGKAPRLLIYAASSLQSGVPSRFSGSGSGTDFTLTISSLQPEDFATYYCQESYTTPPTFGQGTKLEIKR
B20: mAb14286 (antibody, V domains shown)
VH: QVQLVQSGAEVKKPGASVKVSCKASGYTFTDYFIHWVRQAPGQGLEWMGWINPTSGGTNYAQKFRGRVTMTRDTSISTAYVELSRLRSDDTALYYCARDLPFYSDTKQFDYWGQGTLVTVSS
VL: QSALTQPASVSGYPGQSITISCTGTSSDVGGYNYVSWYQQHPGKAPKLMIFDVSNRPSGVSNRFSGSKSGNTASLTFSGLQAEDEADYYCSSYTSSSTLVFGGGTKLTVLG

Target: SARS-COV-2 RBD extracellular domain expressed with a C-terminal myc-myc-hexahistidine tag (SARS-COV-2 RBD-mmH) (SARS-CoV-2)
Assay: SPR Biacore, mAb captured on anti-hFc, RBD-mmH analyte, 37 C

In order of falling Kd:
1. B16  95.3 nM
2. B5  60.7 nM
3. B12  29.2 nM
4. B19  24.6 nM
5. B3  22.3 nM
6. B2  16.2 nM
7. B6  14.4 nM
8. B1  13.1 nM
9. B7  11.6 nM
10. B4  7.92 nM
11. B10  7.79 nM
12. B14  6.33 nM
13. B11  3.29 nM
14. B15  3.1 nM
15. B13  1.78 nM
16. B8  1.65 nM
17. B9  1.21 nM
18. B17  0.297 nM
19. B18  0.158 nM

In order of falling koff:
1. B4  0.0372 s⁻¹
2. B16  0.0334 s⁻¹
3. B1  0.0274 s⁻¹
4. B2  0.0248 s⁻¹
5. B5  0.0218 s⁻¹
6. B3  0.0119 s⁻¹
7. B6  0.00535 s⁻¹
8. B19  0.00442 s⁻¹
9. B7  0.00399 s⁻¹
10. B12  0.00299 s⁻¹
11. B10  0.00194 s⁻¹
12. B14  0.00179 s⁻¹
13. B15  0.00147 s⁻¹
14. B11  0.000866 s⁻¹
15. B13  0.000387 s⁻¹
16. B8  0.000207 s⁻¹
17. B9  0.000176 s⁻¹
18. B17  8.36e-05 s⁻¹
19. B18  7.84e-05 s⁻¹

In order of rising kon:
1. B12  103000 M⁻¹ s⁻¹
2. B8  126000 M⁻¹ s⁻¹
3. B9  146000 M⁻¹ s⁻¹
4. B19  180000 M⁻¹ s⁻¹
5. B13  218000 M⁻¹ s⁻¹
6. B10  250000 M⁻¹ s⁻¹
7. B11  263000 M⁻¹ s⁻¹
8. B14  283000 M⁻¹ s⁻¹
9. B17  283000 M⁻¹ s⁻¹
10. B7  344000 M⁻¹ s⁻¹
11. B16  350000 M⁻¹ s⁻¹
12. B5  359000 M⁻¹ s⁻¹
13. B6  373000 M⁻¹ s⁻¹
14. B15  475000 M⁻¹ s⁻¹
15. B18  493000 M⁻¹ s⁻¹
16. B3  534000 M⁻¹ s⁻¹
17. B2  1.53e+06 M⁻¹ s⁻¹
18. B1  2.09e+06 M⁻¹ s⁻¹
19. B4  4.69e+06 M⁻¹ s⁻¹

In order of falling t½:
1. B18  147 min
2. B17  138 min
3. B9  65.6 min
4. B8  55.7 min
5. B13  29.9 min
6. B11  13.3 min
7. B15  7.9 min
8. B14  6.5 min
9. B10  5.9 min
10. B12  3.9 min
11. B7  2.9 min
12. B19  2.6 min
13. B6  2.2 min
14. B3  1 min
15. B2  0.5 min
16. B5  0.5 min
17. B1  0.4 min
18. B4  0.3 min
19. B16  0.3 min

Target: SARS-COV-2 RBD extracellular domain expressed with a C-terminal myc-myc-hexahistidine tag (SARS-CoV-2)
Assay: SPR (Biacore), mAb captured by anti-human Fc, RBD-mmH in solution, 25 C

In the case of B20, the Kd is reported as 3.22 nM.

In the case of B20, the koff is reported as 0.0104 s⁻¹.

B20 gave a kon of 3.23e+06 M⁻¹ s⁻¹.

B20 showed a t½ of 1.1 min.
